Source: PMC11255114

Assays:
[1] = target: Anti-TRAP (AT), mature deformylated form, trimer AT3 (assembly unit) (UniProt O31466+O31466); test: Sedimentation velocity analytical ultracentrifugation (interference optics, 50,000 rpm); details: pH 8; 25 °C; 100 mM NaCl plus 50 mM sodium phosphate; 50 mM sodium phosphate at pH 7, 7.25, 7.5 and 8 (Fig. 4 caption also lists pH 7.75)
[2] = target: Bacillus subtilis Anti-TRAP protein (AT), mature (deformylated) (Bacillus subtilis); test: AUC; sedimentation velocity, interference optics, 25 °C, 50,000 rpm; 50 mM sodium phosphate, 100 mM NaCl, 0.5 mM tryptophan, 0.02 % NaN3, pH 7 to 8; 65-500 µM AT monomer; global fit in SEDPHAT to a three-state model, 4 AT3 to 2 AT6 to AT12; apparent rate constants, KD from their ratio
[3] = target: N-formylmethionine Anti-TRAP (fAT), trimer fAT3 none (N-terminal formylation of Met1) (UniProt O31466); test: Small-angle X-ray scattering (SIBYLS beamline, ALS); details: pH 8, 100 mM NaCl, 50 mM sodium-phosphate
[4] = target: N-terminal formylmethionine Anti-TRAP (fAT) of Bacillus subtilis (Bacillus subtilis); test: NMR solution structure; fAT3, data at 55 °C; NOEs, torsion angles, RDCs, three-fold symmetry and SAXS restraints; homo-trimer
[5] = target: N-terminal formylmethionine Anti-TRAP (fAT) of Bacillus subtilis (Bacillus subtilis); test: SAXS; fAT at 1, 2, 3.3, 5 and 10 mg/mL in 50 mM sodium phosphate pH 8, 100 mM NaCl, 200 µM ZnCl2, 1 mM TCEP; SIBYLS beamline; deconvolution into trimer and dodecamer
[6] = target: N-terminal formylmethionine Anti-TRAP (fAT) of Bacillus subtilis (Bacillus subtilis); test: NMR spectra (1H-15N HSQC); 3 mM fAT in 20 mM d11-Tris pH 7.5, 20 mM β-mercaptoethanol, 1 mM ZnCl2; also a pH series 6.5 to 8.0 at 25 °C; step looked at for non-binding: trimers to dodecamer

Anti-TRAP (AT), mature deformylated form, trimer AT3 (assembly unit)
equilibrium (dissociation) constant, step 2 (2 AT6 <-> AT12) [1]: 0.05 to 50 µM (upper end of range)

Bacillus subtilis Anti-TRAP protein (AT), mature (deformylated) (natural protein)
KD of the first step (two AT3 to AT6) [2]: 20 to 90 µM | stoichiometry N [2]: 6

N-formylmethionine Anti-TRAP (fAT), trimer fAT3 none (N-terminal formylation of Met1)
fraction of dodecamer in fAT by SAXS deconvolution [3]: <3% at 10 mg/mL

N-terminal formylmethionine Anti-TRAP (fAT) of Bacillus subtilis (natural protein)
stoichiometry N [4]: 3 | percent dodecamer [5]: < 3% | stoichiometry N [6]: 3
